According to patent US20220041697A1 (NEW YORK UNIVERSITY, published 2022):

Tests used:
Assay in all cases: binding of antibody dilutions to peptides (FIG. 1)
[1] = target: T1, Tau 386-408 peptide phosphorylated only on serine 404 (phosphoserine at position 19 of SEQ ID NO: 1 (Ser404 of SEQ ID NO: 25); serine 11 not phosphorylated)
T1 construct: also called P-Ser404; P-Ser404 peptide

[2] = target: T2, non-phosphorylated Tau peptide (Tau386-408) (none (serines 11 and 19 of SEQ ID NO: 1 not phosphorylated))
T2 construct: also called No-P; non-phosphorylated peptide
T2 sequence (peptide, as listed by the source): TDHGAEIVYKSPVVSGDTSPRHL

[3] = target: T3, Peptide Tau 386-408[phospho-serine396,404] (phosphoserine at positions 11 and 19 of SEQ ID NO: 1 (Ser396 and Ser404 of SEQ ID NO: 25))
T3 construct: For immunisation it was conjugated to KLH via a cysteine residue; also called P-Ser396, P-Ser404; diphosphorylated peptide

binding result [1]: binds | binding result [2]: binds | binding result [3]: binds
B1: Tau mAb 8B2D1 (antibody, V domains shown)
VH: EVQLQQSGPELVKPGASVKMSCKASGYTFTSYVIHWVKQKPGQGLEWIGYIYPYNDGTIYNEKFKGKATLTSDTSSSTVYMELISLTAEDSAVYWCVRERDNYGVYWGQGTTLTVSS
VL: DVLLTQTPLSLPVSLGDQASISCRSSQSIVHSNGNTYLEWYLQKPGQSPELLIYKVSNRFYGVPDRFSGSGSGTDFTLKISRVEAEDLGVYYCFQDSHIPYTFGGGTRLEIK
notes: Mouse (BALB/c) hybridoma monoclonal antibody; also called monoclonal antibody 8B2D1; anti-Tau 8B2D1 mAb
